Test results: PMC7543661, “The crystal structure of the tetrameric human vasohibin-1–SVBP complex reveals a variable arm region within the structural core” (Acta Crystallographica. Section D, Structural Biology, 2020)

B1: human small vasohibin-binding protein (SVBP) (amino acids 2–66) (natural protein, UniProt Q8N300 2-66, looked up)
chain: DPPARKEKTKVKESVSRVEKAKQKSAQQELKQRQRAEIYALNRVMTELEQQQFDEFCKQMQPPGE
notes: the final model holds amino acids 26-53 (chain B); Expressed at the C-terminal end of the fusion MBP-His6-5xTEV-VASH1(56-310)-2xTEV-SVBP(2-66) and set free by TEV protease; Residues of the TEV site may be left at its N-terminus; source: E. coli One Shot BL21 Star (DE3) pLysS, purified (HisTrap FF, SP Sepharose, TEV cleavage, SP Sepharose, Superdex 200)
B2: human VASH1 core (VASH1c) region (amino acids 56–310) (domain or fragment)
chain: not shown
notes: vasohibin-1 (VASH1), human, core region, amino acids 56-310; the final model holds amino acids 56-304 (chain A); cut with TEV protease before crystallisation; Residues of the TEV sites may be left at the ends; also called vasohibin-1; source: E. coli One Shot BL21 Star (DE3) pLysS, purified (HisTrap FF, SP Sepharose, TEV cleavage, SP Sepharose, Superdex 200); not shown: MBP, N-terminal, cleaved; …

How the values were obtained:
[1] = molecular target: B2; assay: crystal structure; purified VASH1c–SVBP complex (17.7 mg/ml), sitting-drop vapor diffusion at 20°C, 0.16 M ammonium sulfate, 0.08 M sodium acetate pH 4.6, 20% PEG 4000, 20% glycerol; space group P6(1)22, 2.3 Å; heterotetramer formed by a crystallographic twofold axis; settings: both partners purified
[2] = molecular target: the molecule itself; assay: as above

| Binder | binding result [1] | binding result [2] |
| --- | --- | --- |
| B1 | binds | – |
| B2 | – | binds |
